# Assay results taken from the nanobody polyreactivity screen of Harvey et al. (2022).
# Experiment: yeast display, Sf9 membrane polyspecificity reagent, FACS + sequencing; frameworks hold sequencing errors
# Method in brief: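 Nanobodies from a synthetic yeast display library (Saccharomyces cerevisiae BJ5465), induced 36–48 hours with galactose, were stained 1 hour at 4 °C with 10% biotinylated, detergent-solubilized Sf9 membrane reagent, enriched on streptavidin microbeads, then FACS-sorted. Anti-HA (expression) and streptavidin (reagent binding) fluorescence set low and high (top ~1%) gates. Polyreactivity labels come from the gate of origin. Genes were colony-PCR amplified, MiSeq 2 × 250 sequenced and filtered by CDR length.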
row,Sequence,polyreactivity (PSR sort gate)
1,QVQLVESGGGLVQAGGTLRLSCAASGFIFRKYGMGWYRQAPGKERELVAAIRFTGGSTRYADSVKGRFTISRDNAKNTVYLQMNSLKPEDTAVYYCNADRVYVRGRFTYDYWGQGTQVTVSS,low polyreactivity
2,QVQLVESGGGLVQAGGTLRLSCAASGIIFDQNAMGWYRQAPGKERELVAAISWSGGGTYYADSVKGRFTISRDNAKNTVYLQMNSLKPEDTAVSYCAVEDMSHAYVQHYRFGYGYWGQGTQVTVSS,low polyreactivity
3,QVQLVESGGGLVQAGGTLRLSCAASGIIFDTYVMGWYRQAPGKERELVAAITRSGGRTRYADTVKGRFTISRYNAKNTVYLQMNSLKPEDTAVYYCAARIPDRQDGYGYWGQGTQVTVSS,high polyreactivity
4,QVQLVESGGGLVQAGGTLRLSCAASGLTFRYYAMGWYRQAPGKERELVAAITRRGSTYYADSVKGRFTISRDNAKNTVYFQMNSLKPEDTAVYYCATVTGFHSSPLRDLDYWGQGTQVTVSS,high polyreactivity
5,QVQLVESGGGLVQAGGTLRLSCAASGRIFQAYAMGWYRQAPGKERELVASISYRGGITYYADSVKGRFTISRDNAKNTVYLQMNSLKPEDTAVYYCAARSWYFSWEMYYWGQGTQVTVSS,high polyreactivity
6,QVQLVESGGGLVQAGGTLRLSCAASGRIFSKNAMGWYRQAPGKERELVARIRWTGGITYYADSVKGRFTISRDNAKNTVYLQMNSLKPEDTAVYYCAAGSYAGFAVIGYYYWGQGTQVTVSS,low polyreactivity
7,QVQLVESGGGLVQAGGTLRLSCAASGRTFGYNAMGWYRPAPGKERELVAVIRSGGSTYYADSVKGRFTISRDNAKNTVYLQMNSLKPEDTAVYYCAATGLYNVTSPYSYKYDYWGQGTQVTVSS,low polyreactivity
8,QVQLVESGGGLVQAGGTLRLSCAASGRTFNAYPMGWYRQAPGKERELVAAITSSGTSTYYADSVKGRFTISRDNAKNTVYLQMNSLKPEDTAVYYCAAPWGYWGQCTQVTVSS,low polyreactivity
9,QVQLVESGGGLVQAGGTLRLSCAASGRTFTIYAMGWYRQAPGKEREWVAAITSGGSSYYADSVKGRFTISRDNATKTDYLQMNSLKPEDTAVEYCARGYAVSLVSRYYYWGQGTQVTVSS,low polyreactivity
10,QVQLVESGGGLVQAGGTLRLSCAASGRTFYGNAMGWYRQAPGKERELVAVITRRGDTTYYADSVKGRFTISRDNAKNTVYLQMNSLKPEDTAVYYCAASYTGGYTPRQKYNRMGYWGQGTQVSVSS,high polyreactivity
11,QVQLVESGGGLVQAGGTLRLSCAASGSIFRLNAMGWYRQPPGKERELVAAITSGGRTNYADSVKGRFTISRDNAKNTDYLQMNSLKPEDTAVYYCNARATAYGWRGDAGFEFDYWGQGTQVTVSS,low polyreactivity
12,QVQLVESGGGLVQAGGTLRLSCAASGSIFRYYAMGWYRQAPGKERELVATITSTGGSTYYADSVKGRFTISRDNAKNTVYLQMNSLKPEDTAVYYCAARNKWYVTVRGYYLSGFWGQGTQVTVSS,high polyreactivity
13,QVQLVESGGGLVQAGGTLRLSCAASGSIFYPNAMGWYRQAPGKERELVAASSWTGGSTRYADSVKGRFTISRDIAKNTVYLQMNSLKPEDTAVYYCAALYVYRPRTPYGYSGQGTQVTVSS,high polyreactivity
14,QVQLVESGGGLVQAGGTLRLSCAASGSIQYRYAMGWYRQAHGKERELVAAISARGGNTYYADSVKGRFTISRDNAKNTVYVQMNSLKPEDTAVYYCAATYRGYRLHVAYDYWGQGTQVTVSS,high polyreactivity
15,QVQLVESGGGLVQAGGTLRLSCAASGSTFDVYAMGWYRQSPVKESELVADINYGDASTYYADSVKGRFTISRDNAKNTVYLQMISLNPEDTSVYYCAAFVYVLNYLSDGGSVYREHDYWGQGTKVTVSS,low polyreactivity
16,QVQLVESGGGLVQAGGTLRLSCAASGSTFGRYAMGWYRQAPGKERELVAAITSDTGNTNYADSVKGRFTISRDNAKNTVYLQMNSLKPEDTAVYYCAARLYARRVYDYWGQGTQVTVSS,low polyreactivity

row,Sequence,polyreactivity (PSR sort gate)
1,QVQLVESGGGLVQAGGTLRLSCAASGSTFKSNAMGWYRQEPGKERELVAAINRSGAGTYYADSVKGRFTISRDNAKNTVYLQMNSLKPEDTAVYYCAAQSYSRRYDYWGQGTQVTVSS,high polyreactivity
2,QVQLVESGGGLVQAGGTLRLSCAASGSTFPRNTMGWYRHEPGKERELVAAISSSGVRTYYADSVKGRFTISRDNAKNTVYLQMNSLKAEDTAVYYCAAGSQSRDYYYWGQGTLVTVSS,high polyreactivity
3,QVQLVESGGGLVQAGGTLRLSCAASGSTYDTYTMGGYSQAPGKERVLVAAITSSGDSTYYADSVKGRSTISRDNAKNTVYLQMNSLKPEDTAVYYCAAEVTVWLYYLYVGEYEYWGQGTQVTVSS,high polyreactivity
4,QVQLVESGGGLVQAGGTLRLSCAASGYIFFPYAMGWYRQAPGKERELVAAISGSGTSTYYADSVKGRFTISRDNAKNTVYLQMNSLKPEDTAVYYCAAKYGQYDYDYWGQGTQVTVSS,low polyreactivity
5,QVQLVESGGGLVQAGGTLRLSCAASGYTFYFYAMGWYRQAPGKEREFVAAIRSSGGRTYYADSVKGRFTISRDNAKNTVYLQMNCLKPEDTAVYSCAAAGYYYSVDGAGPRYDYWGQGTQVTGSS,low polyreactivity
6,QVQLVESGGGLVQAGGTLRLSCAATGRIFARYAMGWYRQAPGKERELVAAITVSGDNTYYADSVKGRFTISRYNAKNTVYLQMNSLKPEDTAVYYCAVRAVLLFGFFEYDYWGQGTQVTVSS,low polyreactivity
7,QVQLVESGGGLVQAGGTLRLSCAPSGSIFRVYTMGWYRQAPGKERELVATISRSGVSTNYADSVKGRFTISRDNAKNTVYLQMNSLKPEDTAVYYCNAYYRTKGGFRFGYWGQGTQVTVSS,high polyreactivity
8,QVQLVESGGGLVQAGGTLRLSCDASGLIFEYYAMGWYRQAPGKERELVAVINWSGASTYYADSVKGRFTISRDNAKNTVFLQMNSLKPEDTAVYYCAAGVLITGLRFDYWGQGSQVTVSS,low polyreactivity
9,QVQLVESGGGLVQAGGTLRLSCSASGRTFPGYAMGWYRQAPGKERELVAVISLSGGRTNYADSVKGRFTISRDNAKNTVFLLMNSLKPEDTAVYYCAGRYHGHSNDYWGQGTQVTVSS,low polyreactivity
10,QVQLVESGGGLVQAGGTLRLSCSASGRTFQVYAMGWYRQAPGKERELVAGITRAGSTYYADSVKGRFTISRDNAKNTVYLQMNSLKPEDTAVYYCAASRWHGYNYWGQGTQVTVSS,high polyreactivity
11,QVQLVESGGGLVQAGGTLRLTCAASGRTFYRYVMGWYRHAPVKERELFAAINWSGGSTYYADSVKGRFTISRDNAKNTVYLQMNSLKPEDTAVYYCAADLYTLRYGYRYEYWGQGTQVTVSS,high polyreactivity
12,QVQLVESGGGLVQAGRRLRLSCAASGRIFSRNAMGWYRQAPGKERELVAVITKRGGSTYYADSVKGRFTISRDNAKNTVYLQMNSLKPEDSAVYYCNRRPYTGLGRLDYWGQGTQVTVSS,high polyreactivity
13,QVQLVESGGGLVQAGRSIRLTCAASGITFSEYAMGWYRQAPGKEREFVAAISRRGGSTYYADYVKGRFTISSDNAKNTVYLQMNSLKAEDTAVYYCNRRYVTFRFEQDYDYWGQGNQVTVSS,low polyreactivity
14,QVQLVESGGGLVQAGRSLCLSCAASGSIFINAMGWYRQAPGKERELVATIRWRGGTTYYADSVKGRFTISRDNAKNTVDLQMNSLKPEATAVYYCAADRSYYPDTRTTYGYNYWGQGTQVTVSS,low polyreactivity
15,QVQLVESGGGLVQAGRSLRLICAASGRTFTLNAMRWYRQAPGKERELVDAITWGAGSTYYADSVKGRFTISRDNAKNTVYLQMNSLKPEDTAVYYCAARFHGDYYRYRSPSMYYWGQGSQVTVSS,high polyreactivity
